The labels stand for the following.
B1: 2F3#633 (antibody, V domains shown)
VH: EVQLLESGGGLVQPGGSLRLSCAASGFTFDSYAMSWVRQAPGKGLEWVSAISGSGASTYYADSVKGRFSISRDNSKNTLYLQMNSLRAEDTAVYYCAIRREYSGYTPFDYWGQGTLVTVSS
VL: DIVMTQTPSSLSASVGDRVTITCRASQGISSWLAWYQQKPEKAPRSLIYAASSLQSGVPSRFSGSGSGTDFTLTISSLQPEDFATYYCQQYISYPYTFGQGTKLEIK
B2: 2F3#1733 (antibody, V domains shown)
VH: QITLRESGGGLVQPGGSLRLSCAASGFTFDSYAMSWVRQAPGKGLEWVSAISGSGHSTYYADSVKGRFSISRDNSKNTLYLQMNNLRAEDTAVYYCAIRREYSGYTPFDYWGQGTLVTVSS
VL: DIVMTQTPSSLSASVGDRVTITCRASQGISSWLAWYQQKPEKAPRSLIYAASSLQSGVPSRFSGSGSGTDFTLTISSLQPEDFATYYCQQYISYPYTFGQGTKLEIK
B3: 2F3#6 (antibody, V domains shown)
VH: QVQLLESGGGLVQPGGSLRLSCAASGFTFDSYAMSWVRQAPGKGLEWVSAISGSGASTYYADSVKGRFSISRDNSKNTLYLQMNSLRAEDTAVYYCAIRREYSGYAPFDYWGQGTLVIVSS
VL: DIVMTQTPSSLSASVGDRVTITCRASQGISSWLAWYQQKPEKAPRSLIYAASSLQSGVPSRFSGSGSGTDFTLTISSLQPEDFATYYCQQYISYPYTFGQGTKLEIK

Results on three molecules are retold here after patent US20190111164A1 (published 2019).

The experiment has as its target dBSM (bovine). Nature of the experiment: ELISA. On the technique in general: An ELISA detects its analyte on a solid surface through an enzyme-linked reagent.
By EC50 is commonly meant the midpoint of the concentration-response curve. A lower EC50 goes with a more potent agent. Regarding B1, the midpoint of the response, the EC50, lay at 8.72 nM. In other words, the single-digit nanomolar range. The value for B2 was 13.6 nM; that for B3 was 24.4 nM.
